{"source": "patent US20180369355A1", "about": "(TEXAS A AND M UNIVERSITY SYSTEM, published 2018)", "binders": {"B1": {"name": "Fg γ-peptide P16 (peptide)", "peptide": "GEGQQHHLGGAKQAGAV", "notes": "domain: γ-peptide; Position 410 probably counts on the mature γ-chain; also called P16 peptide; Fg-γ P16 peptide"}, "B2": {"name": "ClfA370-559 (other)", "chain": "EKYGKFYNLSIKGTIDQIDKTNNTYRQTIYVNPSGDNVIAPVLTGNLKPNTDSNALIDQQNTSIKVYKVDNAADLSESYFVNPENFEDVTNSVNITFPNPNQYKVEFNTPDDQITTPYIVVVNGHIDPNSKGDLALRSTLYGYNSNIIWRSMSWDNEVAFNNGSGSGDGIDKPVVPEQPDEPGEIEPIPE", "notes": "also called recombinant form of N3"}, "B3": {"name": "synthetic C-terminal γ-chain peptide (peptide)", "peptide": "GEGQQHHLGGAKQAGDV", "notes": "domain: C-terminal γ-chain peptide; also called Fg γ-peptide; synthetic Fg γ-peptide"}, "B4": {"name": "ClfAPWY (other)", "chain": "VAADAPAAGTDITNQLTNVTVGIDSGTTVYPHQAGYVKLNYGFSVPNSAVKGDTFKITVPKELNLNGVTSTAKVPPIMAGDQVLANGVIDSDGNVIYTFTDYVNTKDDVKATLTMPAYIDPENVKKTGNVTLATGIGSTTANKTVLVDYEKYGKFYNLSIKGTIDQIDKTNNTYRQTIYVNPSGDNVIAPVLTGNLKPNTDSNALIDQQNTSIKVYKVDNAADLSESYFVNPENFEDVTNSVNITFANPNQYKVEFNTPDDQITTPYIVVVNGHIDPNSKGDLALRSTLYGANSNIIARSMSWDNEVAFNNGSGSGDGIDKPVVPEQPDEPGEIEPIPE", "notes": "also called triple mutant"}}, "key": {"ClfACC [1]": {"target": "T1, ClfACC (S. aureus, UniProt Q53653 229-545, engineered disulfide bond between C327 and C541)", "T1 construct": "also called disulfide bond-closed ClfACC; closed form of ClfA N2N3", "T1 sequence": "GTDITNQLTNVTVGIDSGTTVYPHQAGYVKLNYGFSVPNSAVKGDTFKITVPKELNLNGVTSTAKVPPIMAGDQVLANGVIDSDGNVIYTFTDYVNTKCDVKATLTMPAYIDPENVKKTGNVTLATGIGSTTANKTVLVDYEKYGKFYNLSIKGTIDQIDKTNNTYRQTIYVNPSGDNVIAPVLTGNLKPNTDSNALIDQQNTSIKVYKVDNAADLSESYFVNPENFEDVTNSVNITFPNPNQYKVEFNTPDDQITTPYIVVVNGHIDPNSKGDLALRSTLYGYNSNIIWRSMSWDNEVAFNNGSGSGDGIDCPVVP", "assay": "ITC, peptide titrated into ClfACC (paragraph 56 gives this KD as '9' without a unit and calls the peptide a synthetic C-terminal γ-chain peptide; the sheet names it P16)"}, "ClfAPWY": {"target": "B4", "assay": "ITC; 0.5 mM P16 injected into 30 µM ClfAPWY, 30 °C; ITC, P16 peptide"}, "Fg D-fragment [2]": {"target": "T2, Fg D-fragment (UniProt P02671 130-216; P02675 164-491; P02679 114-437)", "T2 construct": "domain: D-fragment; also called D-domain", "T2 sequence 1": "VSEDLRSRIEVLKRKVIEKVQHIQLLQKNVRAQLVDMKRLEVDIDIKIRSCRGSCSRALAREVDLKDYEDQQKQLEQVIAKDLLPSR", "T2 sequence 2": "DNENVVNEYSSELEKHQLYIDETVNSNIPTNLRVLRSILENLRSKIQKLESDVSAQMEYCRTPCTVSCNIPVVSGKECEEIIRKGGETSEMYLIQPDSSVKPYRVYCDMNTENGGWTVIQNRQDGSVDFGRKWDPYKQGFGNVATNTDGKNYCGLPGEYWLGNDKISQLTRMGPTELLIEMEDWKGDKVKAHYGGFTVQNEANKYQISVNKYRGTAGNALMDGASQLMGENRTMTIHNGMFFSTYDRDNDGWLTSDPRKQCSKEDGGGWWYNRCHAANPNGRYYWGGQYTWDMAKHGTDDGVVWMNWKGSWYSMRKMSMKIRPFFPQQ", "T2 sequence 3": "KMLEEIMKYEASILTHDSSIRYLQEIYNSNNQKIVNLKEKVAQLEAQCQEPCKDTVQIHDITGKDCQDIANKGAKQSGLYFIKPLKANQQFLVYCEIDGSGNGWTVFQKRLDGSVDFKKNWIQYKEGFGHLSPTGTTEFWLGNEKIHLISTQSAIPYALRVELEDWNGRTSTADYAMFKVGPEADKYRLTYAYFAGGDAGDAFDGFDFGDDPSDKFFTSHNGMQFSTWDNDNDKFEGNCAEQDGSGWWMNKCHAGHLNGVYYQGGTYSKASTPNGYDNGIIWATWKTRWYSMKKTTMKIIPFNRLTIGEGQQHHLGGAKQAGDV", "assay": "SPR; immobilized Fg D-fragment against γ-peptide"}, "human fibrinogen [3]": {"target": "T3, human fibrinogen (human, UniProt P02671 20-629; P02675 31-491; P02679 27-437)", "T3 construct": "also called Fg; intact Fg", "T3 sequence 1": "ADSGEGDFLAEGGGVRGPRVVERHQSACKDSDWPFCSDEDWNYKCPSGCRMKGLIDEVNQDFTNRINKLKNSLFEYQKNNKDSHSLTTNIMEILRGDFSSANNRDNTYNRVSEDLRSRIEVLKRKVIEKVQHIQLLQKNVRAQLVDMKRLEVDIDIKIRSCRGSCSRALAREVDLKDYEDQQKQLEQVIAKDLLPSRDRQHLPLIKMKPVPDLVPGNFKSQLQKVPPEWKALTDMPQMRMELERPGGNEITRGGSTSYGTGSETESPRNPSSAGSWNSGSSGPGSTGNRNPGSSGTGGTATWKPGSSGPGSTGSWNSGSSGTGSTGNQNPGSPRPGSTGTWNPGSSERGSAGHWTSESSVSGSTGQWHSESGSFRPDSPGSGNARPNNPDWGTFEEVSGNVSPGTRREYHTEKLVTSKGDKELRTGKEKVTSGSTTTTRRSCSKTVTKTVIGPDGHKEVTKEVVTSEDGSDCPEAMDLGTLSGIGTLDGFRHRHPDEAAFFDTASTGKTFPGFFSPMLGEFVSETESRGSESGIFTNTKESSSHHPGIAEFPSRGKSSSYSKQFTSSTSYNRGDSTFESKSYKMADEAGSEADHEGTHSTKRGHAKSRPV", "T3 sequence 2": "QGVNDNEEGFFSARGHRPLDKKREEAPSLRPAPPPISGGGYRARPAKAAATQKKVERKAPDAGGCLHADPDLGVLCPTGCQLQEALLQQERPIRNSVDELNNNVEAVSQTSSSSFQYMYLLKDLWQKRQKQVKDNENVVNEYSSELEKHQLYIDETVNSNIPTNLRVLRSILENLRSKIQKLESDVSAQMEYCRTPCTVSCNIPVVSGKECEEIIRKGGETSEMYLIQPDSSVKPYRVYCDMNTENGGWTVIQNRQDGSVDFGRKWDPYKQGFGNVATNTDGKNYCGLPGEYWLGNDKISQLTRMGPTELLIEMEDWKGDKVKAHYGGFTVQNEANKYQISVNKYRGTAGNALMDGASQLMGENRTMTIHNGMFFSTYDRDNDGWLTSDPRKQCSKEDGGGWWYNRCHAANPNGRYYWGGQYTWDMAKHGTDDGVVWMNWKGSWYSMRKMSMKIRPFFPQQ", "T3 sequence 3": "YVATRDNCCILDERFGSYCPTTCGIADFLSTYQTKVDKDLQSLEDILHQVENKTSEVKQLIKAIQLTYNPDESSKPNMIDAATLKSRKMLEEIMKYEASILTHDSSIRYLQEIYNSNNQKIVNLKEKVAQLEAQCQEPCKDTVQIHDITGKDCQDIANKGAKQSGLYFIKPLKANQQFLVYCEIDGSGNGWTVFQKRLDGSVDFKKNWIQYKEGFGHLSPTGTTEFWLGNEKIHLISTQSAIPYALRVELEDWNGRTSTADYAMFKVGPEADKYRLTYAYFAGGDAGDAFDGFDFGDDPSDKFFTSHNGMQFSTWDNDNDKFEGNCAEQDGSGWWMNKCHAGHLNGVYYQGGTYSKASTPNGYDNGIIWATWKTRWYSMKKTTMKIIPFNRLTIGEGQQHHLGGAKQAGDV", "assay": "SPR; immobilized Fg against γ-peptide"}, "Fg D-fragment [4]": {"target": "T2, Fg D-fragment", "assay": "SPR (Biacore), drawn table Ligand/analyte: Fg D-fragment immobilized, ClfA N3 domain (ClfA370-559) as analyte"}, "human fibrinogen [5]": {"target": "T3, human fibrinogen", "assay": "SPR (Biacore), drawn table Ligand/analyte: fibrinogen immobilized, ClfA N3 domain (ClfA370-559) as analyte"}, "ClfACC [6]": {"target": "T1, ClfACC", "assay": "ITC; peptide titrated into a cell containing ClfACC; the unit is missing in the print; γ-chain peptide titrated into ClfACC"}, "Fg γ-peptide P16 [7]": {"target": "B1", "assay": "ITC, 0.5 mM P16 peptide injected into 30 µM ClfAPWY; OneSites fit box"}, "human fibrinogen [8]": {"target": "T3, human fibrinogen", "assay": "SPR; immobilized Fg; estimated; SPR, Fg, estimated, data not shown"}, "Fg γ-peptide P16 [9]": {"target": "B1", "assay": "ITC, 0.5 mM P16 peptide injected into 30 µM ClfAPWY; OneSites fit box, unit not given"}, "Fg D-fragment [10]": {"target": "T2, Fg D-fragment", "assay": "SPR; immobilized D-fragment; estimated; SPR, D-fragment, estimated, data not shown"}}, "data": [{"binder": "B1", "values": [{"measurement": "Kd", "setting": "ClfACC [1]", "result": 9, "unit": "µM"}, {"measurement": "Kd", "setting": "ClfAPWY", "result": "~5.8", "unit": "µM"}]}, {"binder": "B2", "values": [{"measurement": "fold lower KD than for the γ-peptide", "setting": "Fg D-fragment [2]", "result": "~10", "unit": "fold"}, {"measurement": "fold lower KD than for the γ-peptide", "setting": "human fibrinogen [3]", "result": "~10", "unit": "fold"}, {"measurement": "Kd", "setting": "Fg D-fragment [4]", "result": 6.9, "unit": "µM"}, {"measurement": "Kd", "setting": "human fibrinogen [5]", "result": 5.9, "unit": "µM"}]}, {"binder": "B3", "values": [{"measurement": "Kd", "setting": "ClfACC [6]", "result": 9, "unit": "µM"}]}, {"binder": "B4", "values": [{"measurement": "N", "setting": "Fg γ-peptide P16 [7]", "result": 1.23}, {"measurement": "Kd", "setting": "human fibrinogen [8]", "result": 10, "unit": "µM"}, {"measurement": "ΔH", "setting": "Fg γ-peptide P16 [9]", "result": -6790}, {"measurement": "ΔS", "setting": "Fg γ-peptide P16 [9]", "result": 1.59}, {"measurement": "Kd", "setting": "Fg D-fragment [10]", "result": 17, "unit": "µM"}]}]}
